For assay [1], the target named is His-tagged TGS1-NLS-GFP (NLS of P. falciparum trimethylguanosine synthase fused to GFP) (Plasmodium falciparum). As to the kind of experiment: AlphaScreen or HTRF; biotinylated IMPαs titrated against His-tagged NLS-GFPs (30 nM); apparent dissociation constant. Background: Bead proximity is the source of the signal in Alpha formats.
In assay [2] the target is His-tagged GCN5-NLS-GFP (NLS of T. gondii histone acetyltransferase GCN5 fused to GFP) (Toxoplasma gondii). The assay is described as above.

We go through one molecule from paper PMC9695642, “Conservation of Importin α Function in Apicomplexans: Ivermectin and GW5074 Target Plasmodium falciparum Importin α and Inhibit Parasite Growth in Culture” (International Journal of Molecular Sciences, 2022).

B1: Plasmodium falciparum importin α, biotinylated GST fusion protein (natural protein)
chain: MDRRIEARRKEFKKNCDDTRRKREDLVVQIRKQQRECQLESKRAMVMANIGFEENNTYNLNYAKGNQNDSTNDSIYNTSSNNSSNTLEMLKKIPTLAIGVRSNEYVTQLNSTRELRKLLSIEKGPPIQEVINSGVVPYIVEFLKYDDKTDLQFEAAWVITNIASGSQEQTKVVIDNNAVPHLVRLLSSEKEDVCEQAVWALGNIAGDSAECREYVLNQNSLPLLLKILRTSHKRTLIRNAAWTLSNLCRGKPAPKFEIVSKALPTLAALIYNDDEEILTDACWTLSYLSDGSNENINSVLDAGVAERVVELLSHCSFLVQTPALRTVGNIVTGDDLQTDVVVKLGAVQKLSCLLNSSKKSIKKEACWALSNITAGNISQIQAVIDNNVIPQLINILMKEDFEVRKEAAWAISNASSGGSELQIEYLVECGAIHSLSNLLDVEDANIISVTLEGLENILEMGENKKLRDNLPTNPYVHLFEECDSVHKIDALQDRKVDNICNKAWKILYKYFPFVINNELNNAQIPLNNVFANTEDAVLNKDFTFD
modifications: biotin (Sulfo-NHS-Biotin reagent)
For the molecule B1, the Kd in assay [1] amounted to 6.6 nM; in assay [2] it was 2.5 nM.
